# Reference: article PMC6783512, “Dimethylaminomicheliolide (DMAMCL) Suppresses the Proliferation of Glioblastoma Cells via Targeting Pyruvate Kinase 2 (PKM2) and Rewiring Aerobic Glycolysis” (Frontiers in Oncology, 2019)
# Biological target: the molecule itself
# Test: SEC + AUC; 2 mL of 3 mg/mL purified PKM2 on Superdex 200 pg 16/600, 1 mL/min, UV 280 nm; peaks identified by analytical ultracentrifuge (results: sucrose gradient ultracentrifugation); monomer and tetramer fractions isolated
protein,measurement,value
"recombinant PKM2 C424S (enzyme, Pyruvate kinase M2 (PKM2) with C424S; likely made in E. coli like the wild type; also called rPKM2 protein with C424 mutation; source: purified (plasmid pET28a-PKM2 C424S)) not shown",stoichiometry N,4
